Measurements: the supplement of paper PMC10567573

B1: WSB1 (parent)
chain: DLKDDGNMMKVLRGHQNWVYSCAF
B2: GAGE1 (parent)
chain: RPRRYVQPPEMIGPMRPEQFSDEV

Variants of: B1
Assay: protein stability index of a GFP-peptide fusion (GPS, HEK-293T) (PSI 1-6); higher = more stable
Conditions: c terminus: a fixed tail appended
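Note: lentivirally expressed fusions sorted by FACS into six bins by GFP to DsRed ratio, PSI derived from sequencing read proportions per bin multiplied by bin number.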

Protein stability index: each site, then its substitutions
W18: M 2.75 | G 2.21 | A 2.49 | L 2.88 | N 2.24 | I 2.35 | F 1.47 | S 2.7 | H 2.34 | P 1.86 | E 2.62 | Y 2.09 | K 1.46 | R 1.65 | V 1.07 | Q 2.73 | D 1.69 | C 2.38 | T 2.08
N17: H 1.26 | F 2.34 | Q 2.95 | P 1.86 | S 1.81 | A 2.33 | E 1.68 | K 2.1 | D 1.94 | G 1.78 | R 2.05
R13: S 1.53 | A 1.73 | N 2.74 | Q 2.45 | P 2.02 | F 1.92 | H 1.46 | Y 2.46 | T 2.21 | D 1.32 | W 3.05 | E 2.88 | M 2.28 | K 1.58
Y20: M 1.61 | C 3.17 | S 1.83 | G 1.97 | V 3.3 | K 1.39 | A 2.28 | H 2.06 | P 1.84 | R 2.05 | T 2.63 | F 1.66 | W 2.28 | D 1.69 | E 1.6 | Q 1.68 | L 2.57
D5: Q 2 | H 1.86 | G 1.68 | I 2.12 | E 1.96 | P 3.34 | Y 2.25 | K 1.69 | N 2.04 | M 3.35 | F 3.73 | T 3.18 | A 2.66 | R 3.41
S21: T 1.07 | E 1.94 | K 1.07 | A 2.3 | D 2.05 | N 1.46 | H 2.05 | G 2.27 | R 1.22 | Y 3.37 | P 2.05
K10: V 2.1 | P 2.27 | N 1.31 | C 2.19 | M 1.55 | R 2.4 | Q 2.02 | L 2.53 | H 1.96 | S 1.96 | E 1.49 | F 4.7 | T 1.5 | A 2.38 | Y 2.78 | D 1.72 | I 2.34
M8: L 1.15 | H 2.34 | R 2.35 | T 1.54 | V 1.54 | C 1.38 | I 2.03 | D 2.5 | Y 1.39 | P 2.44 | A 1.83 | N 2.29 | S 2.02 | Q 2.26 | G 2.55 | W 1.09 | K 2.15
L12: I 1.49 | F 1.67 | Y 2.74 | C 2.38 | T 1.37 | G 1.91 | Q 1.16 | K 1.85 | N 1.5 | R 3.69 | M 1.24 | H 1.44 | W 2.38 | D 2.01 | P 2.2 | E 2.27
C22: E 2.39 | Y 1.72 | F 2.98 | K 1.77 | I 2.86 | M 2.61 | Q 2.15 | P 2.01 | D 3.46 | R 2.33 | L 3.06 | S 1.61 | N 1.81 | G 1.69 | T 1.9 | A 2.25 | H 1.33
Q16: F 2.8 | Y 1.4 | C 2.3 | S 2.54 | N 1.79 | V 1.52 | T 2.79 | K 2.41 | H 2.75 | I 2.04 | L 1.48 | E 2.36 | P 2.52 | A 2.32 | M 2.04 | D 1.71
G14: K 2.23 | S 2 | H 1.81 | E 1.45 | N 1.26 | C 2.43 | P 1.91 | A 1.33 | Y 2.35 | D 1.91 | L 2.05 | R 1.29 | W 1.87 | T 2.39 | Q 2.31
D4: W 2.2 | Y 2.28
A23: E 2.24 | V 1.71 | S 2.94 | K 1.31 | I 1.43 | Y 2.29 | R 2.36 | G 1.73 | P 2.5 | F 2.17 | M 1.44 | C 2.5 | L 1.22 | H 1.75 | T 1.6 | N 2.22
N7: H 1.62 | V 2.03 | G 2.54 | S 1.9 | T 1.47 | E 1.66 | Q 1.76 | I 3.63 | A 1.09 | R 1.71 | K 2 | D 2.58 | C 1.83 | P 2.54 | W 3.11 | M 3.16
V19: I 2.13 | F 1.34 | S 1.04 | P 2.03 | L 2.22 | H 2.12 | Y 2.87 | C 2.73 | M 2.52 | T 1.71 | G 2.66 | N 1.44 | D 2.15 | A 2.53 | Q 2.07 | K 1.75 | R 2.86 | W 2.28
H15: L 1.78 | M 1.46 | I 1.96 | W 1.94 | E 2.75 | T 1.92 | R 1.91 | K 2.24 | G 4.54 | F 2.4 | Q 1.5 | A 2.26 | N 2.81 | S 1.88 | D 1.49 | P 2.65
G6: P 2.28 | S 1.92 | R 1.62 | M 1.72 | D 1.94 | C 2.17 | A 2.03 | E 2.38 | K 1.75 | V 1.74 | Y 1.77 | L 1.13 | N 2.12 | I 2.23 | Q 1.58 | W 3.64
M9: D 1.88 | I 4.37 | H 2.19 | S 1.43 | K 1.95 | R 1.54 | E 2.03 | Q 1.73 | A 2.02 | L 1.61 | V 1.27 | N 1.89 | T 1.45 | F 2.67 | Y 1.06
F24: I 2.28 | E 1.82 | S 2.89 | P 2.95 | C 1.47 | V 2.97 | W 4.14 | Q 2.21 | H 3.34 | R 2.33 | M 2.27 | D 3.3 | L 3.07 | N 2.18 | Y 2.38 | K 2.34 | A 2.14 | G 2.19 | T 1.98
V11: L 1.63 | F 2.64 | D 1.93 | M 2 | K 1.57 | E 2.01 | T 2.41 | A 1.75 | N 1.57 | Q 2.62 | I 1.59 | S 2.79 | P 2.31 | G 1.65 | R 1.69 | W 2 | Y 2.26

Variants of: B2
Assay: as above
Conditions: c terminus: a fixed tail appended

Protein stability index of substitutions, site by site:
R1: K 3.96 | C 4.07 | E 4.23 | P 3.8 | G 3.85 | M 3.98 | S 3.73 | F 3.24 | I 3.7 | L 3.96 | Q 4.23 | N 3.93 | A 3.63 | H 3.94 | D 4.33
